Binding result and Kd data for six molecules are collected here from patent US20130237684A1 (RESEARCH CORPORATION TECHNOLOGIES, published 2013).

Series [1] concerns the molecule itself. Briefly: self-association seen by NMR line broadening.
Series [2] has as its target T1, C-terminal fragment of CD92 (FNfn10 cleaved in the CD loop) (human, UniProt P02751 1578-1631).
T1 construct: Start at residue 43 is inferred from the N-terminal fragment ending at Asn42
In words: size exclusion chromatography of the mixed fragments of CD92. The method, then:
Size exclusion chromatography was performed on the fragments of CD92 using a Sephadex75 gel filtration column.
On the technique in general: SEC sorts molecules by how far they enter the pores of the column.

For series [3], the target named is T1, C-terminal fragment of CD92 (FNfn10 …). In words: Trp fluorescence titrations, extrapolated to no urea, 750 mM glycerol. As for the experimental part:
(§1) Proteins were dissolved to a final concentration of 500 nM in 20 mM sodium phosphate buffer at pH 6.0 containing 100 mM sodium chloride, 750 mM glycerol unless otherwise noted and various urea concentration between 1 M and 2.5 M. Urea concentration was determined using an Abbe refractometer (Spectronic Instruments) as described (Pace and Sholtz 1997). To obtain ([…] on the reconstitution at conditions without the addition of urea and glycerol, a series of C-terminal fragment-titration experiments with varying urea or glycerol concentrations, respectively, were performed. The dissociation constants in the absence of urea or glycerol were estimated by extrapolation based on experimental data
(§2) A dissociation constant can be determined from a titration experiment where the concentration of the fluorophore is held constant and its corresponding binding partner is added. […] When measuring the dissociation constant, the concentration of the fluorophore has to be lower than or near the dissociation constant. To obtain a more accurate value, a series of titration experiments were performed at higher urea concentration, followed by subsequent extrapolation to compensate for the addition of urea.

Series [4] shares this target. In words: Trp fluorescence titrations, extrapolated to plain buffer in the reverse order. The method, then: as §2
(§3) To gain an extrapolation that excluded both glycerol and urea, a stepwise approach was taken that assumed that the two co-solutes had independent effects on the dissociation constant.

Series [5] shares this target. Briefly: Trp fluorescence titrations, extrapolated to plain buffer (no urea, no glycerol). As for the experimental part:
as §2, §3

Series [6] has the same target. In words: Trp fluorescence titration, 750 mM glycerol, 1 M urea, about 500 nM N-terminal fragment. The method, then: as §1, §2
Series [7] has as its target T2, Yeast ubiquitin (Sigma) (yeast, UniProt P0CG63 1-76).
T2 construct: mature; also called soluble ubiquitin; free ubiquitin
In words: clone isolated by phage display selection on ubiquitin; listed as ubiquitin-binding monobody.

Series [8] has as its target T3, FN(C)-STAV11.
T3 construct: also called C-FN3-STAV11
T3 chain: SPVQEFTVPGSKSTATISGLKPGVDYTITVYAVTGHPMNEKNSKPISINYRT
In words: flow cytometry of mated yeast: surface C-FN3-STAV11 by anti-V5/FITC, captured secreted N-FN3 by anti-FLAG/PE. On the technique in general: Flow cytometry measures light scatter and fluorescence of single cells or particles in a stream.

Square brackets hold non-standard residues; d marks the D form. Ends that are not written are not given here. * marks the point of attachment. hSer(lactone) = O=C1OCC[C@@H]1N*

One may read the Kd as the free concentration of one partner at which half of the binding sites on the other are occupied at equilibrium, for simple one-to-one binding.

T2 sequence (P0CG63 1-76 limits assumed): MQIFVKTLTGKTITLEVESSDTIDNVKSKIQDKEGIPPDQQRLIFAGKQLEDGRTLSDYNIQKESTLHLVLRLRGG
T1 sequence (P02751 other isoform, or with tags, fused parts or gaps): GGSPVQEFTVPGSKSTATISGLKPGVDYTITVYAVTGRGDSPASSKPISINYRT

B1: N-terminal fragment of CD92 (D7KE9Q FNfn10 cleaved by cyanogen bromide at the GGMGG insertion in the CD loop) (other)
chain: VSDVPRKLQVVAATPTSLLISWDAPAVTVRYYRITYGETGGNGG[hSer(lactone)]
modifications: not fully specified
notes: also called mutant CD-loop fragment
On to B1, for which the binding result in series [1] was “binds”. The equilibrium dissociation constant (Kd) was under 1000 nM in series [2]; about 1.5 nM in series [3]; 3.9 nM in series [4]; 3.6 nM in series [5]; about 10 nM in series [6].

B2: ubiquitin-binding monobody 212 (Fn3 with BC loop CWRRA and FG loop RWVGLAW), phage clone (designed binder, not shown: large carriers; small tags and cut ends)
chain: VSDVPRDLEVVAATPTSLLISWDAPCWRRAYYRITYGETGGNSPVQEFTVPGSKSTATISGLKPGVDYTITVYAVTGRWVGLAWSKPISINYRT
notes: also called clone 212
Turning to B2, the binding result in series [7] was “binds”.

B3: ubiquitin-binding monobody 215 (Fn3 with BC loop CNWRR and FG loop RAYRYRW), phage clone (designed binder, not shown: large carriers; small tags and cut ends)
chain: VSDVPRDLEVVAATPTSLLISWDAPCNWRRYYRITYGETGGNSPVQEFTVPGSKSTATISGLKPGVDYTITVYAVTGRAYRYRWSKPISINYRT
notes: also called clone 215
Consider B3, for which the binding result in series [7] is on record as “binds”.

B4: ubiquitin-binding monobody 213 (Fn3 with BC loop CKHRR and FG loop FADLWWR), phage clone (designed binder, not shown: large carriers; small tags and cut ends)
chain: VSDVPRDLEVVAATPTSLLISWDAPCKHRRYYRITYGETGGNSPVQEFTVPGSKSTATISGLKPGVDYTITVYAVTGFADLWWRSKPISINYRT
notes: also called clone 213
B4: in series [7], the binding result is “binds”.

B5: ubiquitin-binding monobody 214 (Fn3 with BC loop CRRGR and FG loop RGFMWLS), phage clone (designed binder, not shown: large carriers; small tags and cut ends)
chain: VSDVPRDLEVVAATPTSLLISWDAPCRRGRYYRITYGETGGNSPVQEFTVPGSKSTATISGLKPGVDYTITVYAVTGRGFMWLSSKPISINYRT
notes: also called clone 214
For the molecule B5, in series [7], the binding result was “binds”.

B6: N-FN3 (residues 1-42) followed by the FLAG tag, secreted from yeast (other)
chain: VSDVPRDLEVVAATPTSLLISWDAPAVTVRYYRITYGETGGN
notes: also called wild-type N-terminal fragment; pGalsecFN(N)FLAG; not shown: FLAG tag
Take B6: the binding result in series [8] was “binds”.
